T1: human BCMA (B-cell maturation antigen) on cells (human, UniProt Q02223 1-184)
T1 sequence (looked up): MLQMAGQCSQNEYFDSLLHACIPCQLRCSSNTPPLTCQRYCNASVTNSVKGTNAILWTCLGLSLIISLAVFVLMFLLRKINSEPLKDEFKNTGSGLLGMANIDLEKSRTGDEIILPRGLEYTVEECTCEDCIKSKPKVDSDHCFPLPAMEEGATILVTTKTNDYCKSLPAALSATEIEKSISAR

T2: BCMA (recombinant, form not given) (UniProt Q02223 1-54, limits assumed)
T2 construct: one entry is used for both; also called Bio-BCMA; BCMA substrate
T2 sequence (looked up): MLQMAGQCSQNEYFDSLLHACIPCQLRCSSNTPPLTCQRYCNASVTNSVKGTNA

B1: BCMA-Fc antigen (R&D Systems) (Fc fusion)
chain: MLQMAGQCSQNEYFDSLLHACIPCQLRCSSNTPPLTCQRYCNASVTNSVKGTNA
notes: also called BCMA fc fusion protein (R&D Systems, cat #193-BC-050); recombinant BCMA-Fc; not shown: Fc portion of the bought fusion protein
B2: BCMA-14 CAR (139113) (other)
chain: EVQLVETGGGLVQPGGSLRLSCAVSGFALSNHGMSWVRRAPGKGLEWVSGIVYSGSTYYAASVKGRFTISRDNSRNTLYLQMNSLRPEDTAIYYCSAHGGESDVWGQGTTVTVSSASGGGGSGGRASGGGGSETTLTQSPATLSVSPGERATLSCRASQSVGSNLAWYQQKPGQGPRLLIYGASTRATGIPARFSGSGSGTEFTLTISSLQPEDFAVYYCQQYNDWLPVTFGQGTKVEIKTTTPAPRPPTPAPTIASQPLSLRPEACRPAAGGAVHTRGLDFACDIYIWAPLAGTCGVLLLSLVITLYCKRGRKKLLYIFKQPFMRPVQTTQEEDGCSCRFPEEEEGGCELRVKFSRSADAPAYKQGQNQLYNELNLGRREEYDVLDKRRGRDPEMGGKPRRKNPQEGLYNELQKDKMAEAYSEIGMKGERRRGKGHDGLYQGLSTATKDTYDALHMQALPPR
notes: also called HJ64-62PB
B3: BCMA-1 CAR (139100) (other)
chain: QVQLVQSGAEVRKTGASVKVSCKASGYIFDNFGINWVRQAPGQGLEWMGWINPKNNNTNYAQKFQGRVTITADESTNTAYMEVSSLRSEDTAVYYCARGPYYYQSYMDVWGQGTMVTVSSASGGGGSGGRASGGGGSDIVMTQTPLSLPVTPGEPASISCRSSQSLLHSNGYNYLNWYLQKPGQSPQLLIYLGSKRASGVPDRFSGSGSGTDFTLHITRVGAEDVGVYYCMQALQTPYTFGQGTKLEIKTTTPAPRPPTPAPTIASQPLSLRPEACRPAAGGAVHTRGLDFACDIYIWAPLAGTCGVLLLSLVITLYCKRGRKKLLYIFKQPFMRPVQTTQEEDGCSCRFPEEEEGGCELRVKFSRSADAPAYKQGQNQLYNELNLGRREEYDVLDKRRGRDPEMGGKPRRKNPQEGLYNELQKDKMAEAYSEIGMKGERRRGKGHDGLYQGLSTATKDTYDALHMQALPPR
notes: also called ER95-03VA
B4: BCMA-13 CAR (139112) (other)
chain: QVQLVESGGGLVQPGGSLRLSCAVSGFALSNHGMSWVRRAPGKGLEWVSGIVYSGSTYYAASVKGRFTISRDNSRNTLYLQMNSLRPEDTAIYYCSAHGGESDVWGQGTTVTVSSASGGGGSGGRASGGGGSDIRLTQSPSPLSASVGDRVTITCQASEDINKFLNWYHQTPGKAPKLLIYDASTLQTGVPSRFSGSGSGTDFTLTINSLQPEDIGTYYCQQYESLPLTFGGGTKVEIKTTTPAPRPPTPAPTIASQPLSLRPEACRPAAGGAVHTRGLDFACDIYIWAPLAGTCGVLLLSLVITLYCKRGRKKLLYIFKQPFMRPVQTTQEEDGCSCRFPEEEEGGCELRVKFSRSADAPAYKQGQNQLYNELNLGRREEYDVLDKRRGRDPEMGGKPRRKNPQEGLYNELQKDKMAEAYSEIGMKGERRRGKGHDGLYQGLSTATKDTYDALHMQALPPR
notes: also called B13; KG66-98AB
B5: BCMA-15 CAR (139114) (other)
chain: EVQLVESGGGLVQPGGSLRLSCAVSGFALSNHGMSWVRRAPGKGLEWVSGIVYSGSTYYAASVKGRFTISRDNSRNTLYLQMNSLRPEDTAIYYCSAHGGESDVWGQGTTVTVSSASGGGGSGGRASGGGGSEIVLTQSPGTLSLSPGERATLSCRASQSIGSSSLAWYQQKPGQAPRLLMYGASSRASGIPDRFSGSGSGTDFTLTISRLEPEDFAVYYCQQYAGSPPFTFGQGTKVEIKTTTPAPRPPTPAPTIASQPLSLRPEACRPAAGGAVHTRGLDFACDIYIWAPLAGTCGVLLLSLVITLYCKRGRKKLLYIFKQPFMRPVQTTQEEDGCSCRFPEEEEGGCELRVKFSRSADAPAYKQGQNQLYNELNLGRREEYDVLDKRRGRDPEMGGKPRRKNPQEGLYNELQKDKMAEAYSEIGMKGERRRGKGHDGLYQGLSTATKDTYDALHMQALPPR
notes: also called B15; PY43-48LB
B6: BCMA-15 scFv (139114) (scFv)
scFv: EVQLVESGGGLVQPGGSLRLSCAVSGFALSNHGMSWVRRAPGKGLEWVSGIVYSGSTYYAASVKGRFTISRDNSRNTLYLQMNSLRPEDTAIYYCSAHGGESDVWGQGTTVTVSSASGGGGSGGRASGGGGSEIVLTQSPGTLSLSPGERATLSCRASQSIGSSSLAWYQQKPGQAPRLLMYGASSRASGIPDRFSGSGSGTDFTLTISRLEPEDFAVYYCQQYAGSPPFTFGQGTKVEIK
notes: also called B15; BMCA-15
B7: BCMA-13 scFv (139112) (scFv)
scFv: QVQLVESGGGLVQPGGSLRLSCAVSGFALSNHGMSWVRRAPGKGLEWVSGIVYSGSTYYAASVKGRFTISRDNSRNTLYLQMNSLRPEDTAIYYCSAHGGESDVWGQGTTVTVSSASGGGGSGGRASGGGGSDIRLTQSPSPLSASVGDRVTITCQASEDINKFLNWYHQTPGKAPKLLIYDASTLQTGVPSRFSGSGSGTDFTLTINSLQPEDIGTYYCQQYESLPLTFGGGTKVEIK
notes: also called B13
B8: BCMA-4 scFv (139103) (scFv)
scFv: QVQLVESGGGLVQPGRSLRLSCAASGFTFSNYAMSWVRQAPGKGLGWVSGISRSGENTYYADSVKGRFTISRDNSKNTLYLQMNSLRDEDTAVYYCARSPAHYYGGMDVWGQGTTVTVSSASGGGGSGGRASGGGGSDIVLTQSPGTLSLSPGERATLSCRASQSISSSFLAWYQQKPGQAPRLLIYGASRRATGIPDRFSGSGSGTDFTLTISRLEPEDSAVYYCQQYHSSPSWTFGQGTKLEIK
notes: also called B4

Key:
[1] = target: T3, BCMA-10 CAR (139109); test: flow cytometry; BCMA-Fc antigen staining of CAR-transduced SupT1 cells
T3 construct: also called B10; EG63-98LB

[2] = target: T1, human BCMA (B-cell maturation antigen) …; test: cell-based or functional assay
[3] = target: B1; test: flow cytometry; BCMA-Fc staining of CAR-transduced JNL cells
Method: Jurkat-NFAT-luciferase (JNL) cells transduced with BCMA CAR constructs were evaluated for activation in response to BCMA-expressing target cell lines. Small-scale viral supernatant samples were generated in HEK293T cells for transduction of JNL cells. On Day 3 following transduction, BCMA CAR-transduced JNL cells were incubated with target cells at an effector-to-target (E:T) ratio of 6:1. Target cell lines were: K562-BCMA (engineered to stably express BCMA), K562 (parental line), and BCMA positive multiple myeloma cell lines, NCI-H929 and RPMI 8226. JNL activation was measured using Bright-Glo substrate (Promega) on Day 4. CAR expression on transduced JNL was assessed on Day 7 with BCMA-Fc antigen and Biotin-Protein L reagent (Table 21).

[4] = target: T2, BCMA (recombinant, form not given); test: affinity assay (RU biosensor), 1:1 Binding fit

Binder | binding result [1] | JNL binding assay, ratio to K562; K562-BCMA [2] [ratio] | JNL binding assay, ratio to K562; NCI-H929 [2] [ratio] | JNL binding assay, ratio to K562; RPMI 8226 [2] [ratio] | Proliferation CD3, ratio to no target; K562-BCMA [2] [ratio] | Proliferation CD3, ratio to no target; KMS11-luc [2] [ratio] | Proliferation CD3, ratio to no target; NCI-H929 [2] [ratio] | Proliferation CD3, ratio to no target; RPMI 8226 [2] [ratio] | Proliferation CD4, ratio to no target; K562-BCMA [2] [ratio] | Proliferation CD4, ratio to no target; KMS11-luc [2] [ratio] | Proliferation CD4, ratio to no target; NCI-H929 [2] [ratio] | Proliferation CD4, ratio to no target; RPMI 8226 [2] [ratio] | Proliferation CD8, ratio to no target; K562-BCMA [2] [ratio] | Proliferation CD8, ratio to no target; KMS11-luc [2] [ratio] | Proliferation CD8, ratio to no target; NCI-H929 [2] [ratio] | Proliferation CD8, ratio to no target; RPMI 8226 [2] [ratio] | % CAR+ (BCMA-Fc detection) [3] [%] | Kd [4] [nM] | koff [4] [s⁻¹] | kon [4] [M⁻¹ s⁻¹]
B1 | binds |  |  |  |  |  |  |  |  |  |  |  |  |  |  |  |  |  |  | 
B2 |  | 2.81 | 2.65 | 3.31 | 4.12 | 3.42 | 3.86 | 3.93 | 5.73 | 3.97 | 5.07 | 4.84 | 2.65 | 2.83 | 2.73 | 3.03 | 31.8 |  |  | 
B3 |  | 4.6 | 4.55 | 5.06 | 1.59 | 1.38 | 4.97 | 2.96 | 1.57 | 1.24 | 5.57 | 2.43 | 1.61 | 1.56 | 4.14 | 3.58 | 72.1 |  |  | 
B4 |  | 3.74 | 2.68 | 3.66 | 3.47 | 3.2 | 3.46 | 3.48 | 5.4 | 3.84 | 5.05 | 4.44 | 2.34 | 2.79 | 2.53 | 2.86 | 32.7 |  |  | 
B5 |  | 2.91 | 2.79 | 3.49 | 3.94 | 3.51 | 4.08 | 3.73 | 4.87 | 3.82 | 4.82 | 4.24 | 1.89 | 2.73 | 2.42 | 2.51 | 36.9 |  |  | 
B6 |  |  |  |  |  |  |  |  |  |  |  |  |  |  |  |  |  | 9.3 | 0.00187 | 201000
B7 |  |  |  |  |  |  |  |  |  |  |  |  |  |  |  |  |  | 24.5 | 0.00161 | 65600
B8 |  |  |  |  |  |  |  |  |  |  |  |  |  |  |  |  |  | 1 | 0.0006 | 617000

From US20220064316A1 (published 2022)
